The values that follow come from patent US20230104769A1 (MABWELL SHANGHAI BIOSCIENCE, published 2023).

First the molecules themselves.
B1: h317 variant antibody, heavy chain D33S (antibody, V domains shown)
VH: EVQLVESGGGLVKPGGSLRLSCAASGFTFSSYSMSWVRQAPGKGLEWVATISGGGSYTYYPDSVKGRFTISRDNAKNSLYLQMNSLRAEDTAVYYCASPDSSGVAYWGQGTLVTVSS
VL: DIVMTQSPLSLPVTPGEPASITCKASQDVETVVAWYLQKPGQSPRLLIYWASTRHTGVPDRFSGSGSGTDFTLKISRVEAEDVGVYYCQQYSRYPWTFGQGTKL
notes: Variant of h317
B2: h317 variant antibody, light chain T56S and S92N (antibody, V domains shown)
VH: B1 VH with S33D
VL: B1 VL with T56S, S92N
notes: Variant of h317; also called 56S(CDR2) 92N(CDR3)
B3: h317 variant antibody, heavy chain Y106T (antibody, V domains shown)
VH: B1 VH with S33D, Y106T
VL: B1 VL
notes: Variant of h317; also called YI06T
B4: h317 variant antibody, heavy chain D33S and Y59A (antibody, V domains shown)
VH: B1 VH with Y59A
VL: B1 VL
notes: Variant of h317; also called 33S(CDRH 59A(CDR2))
B5: h317 variant antibody, heavy chain Y57T (antibody, V domains shown)
VH: B1 VH with S33D, Y57T
VL: B1 VL
notes: Variant of h317
B6: h317 variant antibody, heavy chain Y59T (antibody, V domains shown)
VH: B1 VH with S33D, Y59T
VL: B1 VL
notes: Variant of h317
B7: h317 variant antibody, heavy chain G53Y (antibody, V domains shown)
VH: B1 VH with S33D, G53Y
VL: B1 VL
notes: Variant of h317
B8: h317 variant antibody, heavy chain S31D (antibody, V domains shown)
VH: B1 VH with S31D, S33D
VL: B1 VL
notes: Variant of h317
B9: h317 variant antibody, heavy chain D33S and G54S (antibody, V domains shown)
VH: B1 VH with G54S
VL: B1 VL
notes: Variant of h317; also called 33S(CDR1) 54S(CDR2)
B10: h317 variant antibody, light chain V32A (antibody, V domains shown)
VH: B1 VH with S33D
VL: B1 VL with V32A
notes: Variant of h317
B11: h317 variant antibody, light chain S92D (antibody, V domains shown)
VH: B1 VH with S33D
VL: B1 VL with S92D
notes: Variant of h317
B12: h317 variant antibody, heavy chain D33Y (antibody, V domains shown)
VH: B1 VH with S33Y
VL: B1 VL
notes: Variant of h317
B13: h317 variant antibody, light chain K24R, T56S and S92N (antibody, V domains shown)
VH: B1 VH with S33D
VL: B1 VL with K24R, T56S, S92N
notes: Variant of h317; also called 24R(CDR1) 56S(CDR2) 92N(CDR3)
B14: h317 variant antibody, light chain T56S (antibody, V domains shown)
VH: B1 VH with S33D
VL: B1 VL with T56S
notes: Variant of h317
B15: h317 variant antibody, heavy chain Y32N (antibody, V domains shown)
VH: B1 VH with Y32N, S33D
VL: B1 VL
notes: Variant of h317
B16: h317 variant antibody, heavy chain Y32A (antibody, V domains shown)
VH: B1 VH with Y32A, S33D
VL: B1 VL
notes: Variant of h317
B17: h317 variant antibody, heavy chain D100E (antibody, V domains shown)
VH: B1 VH with S33D, D100E
VL: B1 VL
notes: Variant of h317
B18: h317 variant antibody, light chain V32Y (antibody, V domains shown)
VH: B1 VH with S33D
VL: B1 VL with V32Y
notes: Variant of h317
B19: h317 variant antibody, heavy chain S101A (antibody, V domains shown)
VH: B1 VH with S33D, S101A
VL: B1 VL
notes: Variant of h317
B20: h317 variant antibody, light chain K24R and S92N (antibody, V domains shown)
VH: B1 VH with S33D
VL: B1 VL with K24R, S92N
notes: Variant of h317; also called 24R(CDR1) 92N(CDR3)
B21: h317 variant antibody, heavy chain G53S (antibody, V domains shown)
VH: B1 VH with S33D, G53S
VL: B1 VL
notes: Variant of h317
B22: h317 variant antibody, heavy chain Y59A (antibody, V domains shown)
VH: B1 VH with S33D, Y59A
VL: B1 VL
notes: Variant of h317
B23: h317 variant antibody, light chain S92N (antibody, V domains shown)
VH: B1 VH with S33D
VL: B1 VL with S92N
notes: Variant of h317
B24: h317 variant antibody, light chain H55A (antibody, V domains shown)
VH: B1 VH with S33D
VL: B1 VL with H55A
notes: Variant of h317
B25: h317 variant antibody, light chain K24R, T56S and S92N with heavy chain D33S and G54S (antibody, V domains shown)
VH: B1 VH with G54S
VL: B1 VL with K24R, T56S, S92N
notes: Variant of h317; also called L- 24R(CDR1) 56S(CDR2) 92N(CDR3); H- 33S(CDR1) 54S(CDR2)
B26: h317 variant antibody, light chain W96G (antibody, V domains shown)
VH: B1 VH with S33D
VL: B1 VL with W96G
notes: Variant of h317
B27: h317 variant antibody, heavy chain G55S (antibody, V domains shown)
VH: B1 VH with S33D, G55S
VL: B1 VL
notes: Variant of h317
B28: h317 variant antibody, light chain K24R and T56S (antibody, V domains shown)
VH: B1 VH with S33D
VL: B1 VL with K24R, T56S
notes: Variant of h317; also called 24R(CDR1) 56(2)
B29: h317 variant antibody, light chain E30S (antibody, V domains shown)
VH: B1 VH with S33D
VL: B1 VL with E30S
notes: Variant of h317
B30: h317 variant antibody, heavy chain G54S and Y59A (antibody, V domains shown)
VH: B1 VH with S33D, G54S, Y59A
VL: B1 VL
notes: Variant of h317; also called 54S(CDR2) 59A(CDR2)
B31: h317 variant antibody, light chain R93S (antibody, V domains shown)
VH: B1 VH with S33D
VL: B1 VL with R93S
notes: Variant of h317
B32: h317 variant antibody, heavy chain G54D (antibody, V domains shown)
VH: B1 VH with S33D, G54D
VL: B1 VL
notes: Variant of h317
B33: h317 variant antibody, light chain W50G (antibody, V domains shown)
VH: B1 VH with S33D
VL: B1 VL with W50G
notes: Variant of h317
B34: h317 variant antibody, heavy chain S56G (antibody, V domains shown)
VH: B1 VH with S33D, S56G
VL: B1 VL
notes: Variant of h317
B35: h317 variant antibody, heavy chain S52K (antibody, V domains shown)
VH: B1 VH with S33D, S52K
VL: B1 VL
notes: Variant of h317
B36: h317 variant antibody, light chain W50A (antibody, V domains shown)
VH: B1 VH with S33D
VL: B1 VL with W50A
notes: Variant of h317
B37: h317 variant antibody, heavy chain G54S (antibody, V domains shown)
VH: B1 VH with S33D, G54S
VL: B1 VL
notes: Variant of h317
B38: h317 variant antibody, light chain R93N (antibody, V domains shown)
VH: B1 VH with S33D
VL: B1 VL with R93N
notes: Variant of h317
B39: h317 variant antibody, heavy chain D100Y (antibody, V domains shown)
VH: B1 VH with S33D, D100Y
VL: B1 VL
notes: Variant of h317
B40: h317 variant antibody, light chain K24R and Y94F (antibody, V domains shown)
VH: B1 VH with S33D
VL: B1 VL with K24R, Y94F
notes: Variant of h317; also called 24R(CDR1) 94F(CDR3)
B41: h317 variant antibody, heavy chain S52W (antibody, V domains shown)
VH: B1 VH with S33D, S52W
VL: B1 VL
notes: Variant of h317
B42: h317 variant antibody, light chain K24R (antibody, V domains shown)
VH: B1 VH with S33D
VL: B1 VL with K24R
notes: Variant of h317
B43: h317 variant antibody, light chain H55Q (antibody, V domains shown)
VH: B1 VH with S33D
VL: B1 VL with H55Q
notes: Variant of h317
B44: h317 variant antibody, light chain K24R, T56S and S92N with heavy chain G54S and Y59A (antibody, V domains shown)
VH: B1 VH with S33D, G54S, Y59A
VL: B1 VL with K24R, T56S, S92N
notes: Variant of h317; also called L- 24R(CDR1) 56S(CDR2) 92N(CDR3); H- 54S(CDR2) 59A(CDR2)

Numbering of substitutions follows the chain as printed. In names and notes the source's numbering stands.

In this assay the target is T1, recombinant human PD-1 protein (NCBI accession No.: NP_005009.2, 21aa-167aa) (human, UniProt Q15116 21-167).
T1 construct: range 21-167; also called recombinant human PD-1 extracellular domain protein; PD-1-ECD
T1 sequence (Q15116 21-167 limits assumed, form in doubt): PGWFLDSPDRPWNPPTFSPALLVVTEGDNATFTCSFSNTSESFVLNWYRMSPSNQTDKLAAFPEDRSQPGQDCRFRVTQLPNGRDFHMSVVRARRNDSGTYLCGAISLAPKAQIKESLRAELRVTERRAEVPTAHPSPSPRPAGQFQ
Briefly: BLI Octet QKe, antibody on the sensor, single 100 nM PD-1. As to the method: Determination of the binding kinetics: the affinity of the antibody was determined with Octet QKe system from Fortebio using an assay of capturing biotin-labeled antibody with streptavidin. […] Both the binding and dissociating were conducted for 300 s.
The comparison of affinity between the variant antibodies and the parent antibody was performed using Octet QKe system supplied by Fortebio.
In general terms: In BLI a coated tip is dipped into the sample, and binding shifts an interference pattern.
The Kd is the concentration at which binding is half-saturated. For the molecule B1, the Kd is 2.89 nM. Next, B2: 3.98 nM. Turning to B3, the Kd turned out to be 294 nM. The same measure for B4: 3.96 nM. Next, B5: 61.2 nM; B6: 18.9 nM; B7: 10.3 nM. The same measure for B8: 5.12 nM. Regarding B9, the equilibrium dissociation constant (Kd) worked out at 3.12 nM. Take B10: the Kd was found to be 6.21 nM.

With B11, the Kd amounted to 7.52 nM. The same measure for B12: 236 nM. The same measure for B13: 2.91 nM; for B14: 3.02 nM; for B15: 18.1 nM. The same measure for B16: 6.83 nM. Regarding B17, the Kd was 74.4 nM.

B18: the Kd was 9.81 nM. The same measure for B19: 16.3 nM; for B20: 4.17 nM; for B21: 5.53 nM. The same measure for B22: 3.29 nM. Next, B23: 3.49 nM. With B24, the Kd is 172 nM. For the molecule B25, the Kd worked out at 3.38 nM. Next, B26: 15.3 nM; B27: 9.09 nM.

As to B28, the Kd amounted to 3.23 nM.

In the case of B29, the Kd came to 14.2 nM. With B30, the Kd amounted to 2.68 nM. On to B31, for which the Kd was found to be 7.94 nM. The same measure for B32: 29.3 nM.

Turning to B33, the Kd came to 61.4 nM. Next, B34: 148 nM; B35: 27.2 nM; B36: 12.3 nM. As to B37, the Kd came out at 1.32 nM.

As to B38, the Kd came to 36.4 nM. Next, B39: 8.23 nM; B40: 5.32 nM. Next, B41: 39.4 nM; B42: 1.02 nM. The same measure for B43: 14.2 nM; for B44: 2.88 nM.
